This note sets out measurements from US20050079613A1, “Downregulation of cell surface glycoproteins by a family of human ubiquitin ligases” (Oregon Health & Science University, priority 2002, published 2005).

The test system of one data set is HLA-A2.1. In words: Surface expression of co-transfected HLA-A2.1 constructs on HeLa cells, flow cytometry. It is filed as cell-based, human. How it is done: Flow cytometry. Cells were removed from tissue culture dishes with 0.05% Trypsin-EDTA (Invitrogen), washed with ice-cold PBS, and incubated with appropriate antibody for 30 minutes at 4° C. The cells were washed with ice-cold PBS and either resuspended in ice-cold PBS or incubated with PE-conjugated anti-mouse secondary antibody (DAKO) and washed again before analysis with a BD Biosciences (San Jose, Calif.) FACScalibur flow cytometer.
The ability to downregulate MHC I is common to KSHV-K3, KSHV-K5, MHV68-K3 and MV-M153R (Coscoy and Ganem, 2000, supra; Guerin et al., 2002, supra; Ishido et al., 2000b supra; Stevenson et al., 2000, supra). Additional substrates are ICAM-1 and B7.2 (but not B7.1) for KSHV-K5, as well as CD95 and CD4 for M153R (Coscoy and Ganem, 2001, supra; Guerin et al., 2002, supra; Ishido et al., 2000a, supra; Mansouri et al., 2003, supra). Since only low copy numbers were detected in HeLa cells for transcripts corresponding to each of the MARCH-proteins (FIG. 7C, and data not shown), HeLa cells were transfected with expression plasmids for MARCH-I, II, III, IV, V and VIII. Surface expression of selected glycoproteins was monitored upon transfection. The following known substrates for viral K3-family members were tested: Fas (CD95) and HLA class I (MHC I), both of which are endogenously expressed in HeLa cells, as well as transfected HLA-A2.1 or CD4. […] Surface expression of the respective markers was analyzed by flow cytometry. GFP was used to identify transfected cells.
The most likely targets for ubiquitination on transmembrane glycoproteins are lysines in the cytoplasmic tail. To examine the role of lysines for MHC I and CD4 downregulation by MARCH-IV, a panel of constructs derived from the human MHC I molecule HLA-A2.1 and a lysine-deleted version of CD4 (Mansouri et al., 2003, supra) were used. In addition to MARCH-IV, MARCH-VIII was included in this analysis since it reduced HLA-A2.1 surface expression (FIG. 10A). […] To rule out the possibility that these mutations changed the target molecules in such a way that they are no longer recognized by MARCH-IV or VIII, a lysine residue into a HA-tag at the carboxyterminal end of HLA-A2.1 was introduced.

For the next data set, the system named is ubiquitin. In words: In vitro ubiquitination assay with GST-fused RING-CH (PHD) domains, E1, E2 panel, anti-ubiquitin immunoblot. It is filed as biochemical. To be noted: E2 = UbCH2. The method, then: Ubiquitination assay. UbCH2 and UbCH3 were obtained from Boston Biochem. (His)6-UbCH5a and GST fusion proteins were expressed in BL21-DE3 cells (Stratagene) and BL21 cells (Amersham), respectively, and purified as previously described (Boutell, C., S. Sadis and R. D. Everett, J. Virol. 76:841-850, 2002; Tiwari, S. and A. M. Weissman, J. Biol. Chem. 276:16193-16200, 2001). Purified E3 proteins were stored at 4° C., and E2 proteins were stored at −80° C. In vitro reaction mixtures (20 μl total) included: 50 nM rabbit E1 (Boston Biochem), 28 μM Ubiquitin, 5 mM ATP, 50 mM Tris-HCl pH 7.5, 50 mM NaCl, and 2 mM DTT. E2 enzymes were used at concentrations varying from 0.1 to 2.3 μM, and E3 concentrations ranged from 3 to 30 μM. After 90 minutes of incubation at 30° C., reactions were stopped by boiling in SDS sample buffer. Samples were electrophoresed through 12% polyacrylamide SDS gels and blotted using anti-ubiquitin mouse antibody, P4D1 (Santa Cruz Biotech).
In vitro reaction mixtures (20 μl total) included: 50 nM rabbit E1 (Boston Biochem), 28 μM Ubiquitin, 10 mM ATP, 50 mM Tris-HCl pH 7.5, 50 mM NaCl, and 2 mM DTT. E2 enzymes were used at concentrations varying from 0.7 to 2.3 μM, and E3 concentrations ranged from 3 to 25 μM. After 90 minutes of incubation at 30° C., reactions were stopped by addition of 4×reducing sample buffer. Samples were electrophoresed through 12% SDS gels and blotted using anti-ubiquitin mouse antibody (Santa Cruz Biotech).
To examine if the RING-CH domains of MARCH-I and MARCH-II would act as ubiquitin ligases in vitro, DNA fragments encoding the amino-terminal RING-CH-domain of both proteins were fused to Glutathione-S-transferase. The resulting constructs were sequence confirmed and expression of GST-MARCH protein verified by immunoblot. The GST-fusion protein was expressed and purified from E. coli cultures using Glutathione-columns. The ICP0-RING-domain was also purified, in parallel with the MARCH-I and MARCH-II constructs. A panel of E2 enzymes was either purchased from commercial sources or purified either by nickel-chelate chromatography or on glutathione columns. All E2-enzymes formed mercapto-ethanol-sensisitve complexes with ubiquitin thus showing ubiquitin conjugating activity. Purified ubiquitin and E1 was obtained from commercial sources.
To examine if the RING-CH domains of MARCH proteins act as ubiquitin ligases in vitro, a DNA fragment encoding the amino-terminal RING-CH-domains of MARCH-I, II, IV and VIII were fused to Glutathione-S-transferase (GST) for bacterial expression. The GST-fusion proteins were purified from E. coli cultures using Glutathione-sepharose-columns. Approximately thirty E2 proteins are found in the human genome compared to only one E1 enzyme (Pickart, 2001, supra). […] The specificity and selectivity of E3s with respect to E2s, however, is not well characterized. To cover a spectrum of E2s, a panel of E2 enzymes (Mansouri et al., 2003, supra) was acquired. The various E2 enzymes were incubated with or without the RING-CH-GST fusions in the presence of ubiquitin, ATP, E1. The formation of multiubiquitin-adducts was examined by immunoblotting with antibodies against ubiquitin.

The test system of the next data set is MHC I. The data set is described as follows: MHC I uptake assay in HeLa cells. It is filed as cell-based, human. Conditions: transfected HeLa cells, 37° C. for 120 minutes. How it is done: Uptake Assay. Uptake of MHC I was measured as previously described (Ishido et al., 2000b, supra). In short, HeLa cells were transfected with MARCH-IV. Twenty four hours post-transfection cells were washed and an anti-MHC I antibody allowed to bind at 4° C. Cells were then either fixed immediately or transferred to 37° C. for 120 minutes to allow uptake of antibody bound glycoproteins. Antibody bound to glycoprotein was visualized using an Alexaflour:594-conjugated secondary antibody.
The observed downregulation of MHC I and CD4 by MARCH-IV permitted the study of the molecular mechanism by which MARCH-proteins reduce glycoprotein levels. […] The only known exception is MHV68-K3 which mediates proteasomal degradation of MHC I prior to its exit from the ER (Boname and Stevenson, 2001, supra). To study if MHC I was internalized by MARCH-IV, the recycling of MHC I in MARCH-IV transfected and non-transfected cells over the course of 2 hours was compared. MHC I on MARCH-IV transfected or non-transfected cells was labeled with anti-MHC I antibody at 4° C.

B1: MARCH-IV: human membrane-associated RING-CH ubiquitin ligase, SEQ ID NOS:45 and 57; construct used lacks the first 63 amino-acids (protein)
chain: WYCYGLCAPAPQMLRHQGLLKCRCRMLFNDLKVFLLRRPPQAPLPMHGDPQPPGLAANNTLPALGAGGWAGWRGPREVVGREPPPVPPPPPLPPSSVEDDWGGPATEPPASLLSSASSDDFCKEKTEDRYSLGSSLDSGMRTPLCRICFQGPEQGELLSPCRCDGSVKCTHQPCLIKWISERGCWSCELCYYKYHVIAISTKNPLQWQAISLTVIEKVQVAAAILGSLFLIASISWLIWSTFSPSARWQRQDLLFQICYGMYGFMDVVCIGLIIHEGPSVYRIFKRWQAVNQQWKVLNYDKTKDLEDQKAGGRTNPRTSSSTQANIPSSEEETAGTPAPEQGPAQAAGHPSGPLSHHHCAYTILHILSHLRPHEQRSPPGSSRELVMRVTTV
As for B1, in the data set on HLA-A2.1 (HeLa cells), the “downregulation of HLA-A2.1 with a lysine re-introduced into the C-terminal HA-tag” value is “restored downregulation”. Besides, the “surface expression of transfected HLA-A2.1” value in the data set on HLA-A2.1 (HeLa cells co-transfected with HLA-A2.1 and MARCH plasmid) is reported as “reduced the surface expression”. Moreover, the “downregulation of HLA-A2.1 with lysines removed from the tail” value in the data set with HLA-A2.1 (HeLa cells, lysine-less HLA-A2.1 construct) is “resistant”. For the same molecule, the “ubiquitin ligase activity with UbCH2” value with ubiquitin is on record as “mostly active”. Besides, the “internalization (uptake) of antibody-labeled MHC I” value with MHC I is “rapid internalization”.
